Target: isoform CBd of the basic phospholipase A2 (PLA2) subunit of crotoxin (Crotalus durissus terrificus)
Experiment: crystal structure

isoform CBd of the basic phospholipase A2 (PLA2) subunit of crotoxin (enzyme)
stoichiometry N: 4

Reference: PMC7696373
